Laboratory results as given in the supplement of paper PMC9732359.
± gives the uncertainty stated by the source.

Assay: protein stability index of a GFP-peptide fusion (yeast GPS) (PSI 1-4); higher = more stable; sorted into four equal gates, so the index is relative within each strain
Procedure, shortened: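 Tiled 17-residue peptides from yeast proteins were fused downstream of GFP on a plasmid that also expresses Cherry, and the pooled library was carried in yeast. Mid-log cultures grown in leucine-free medium were sorted into four equal gates by GFP/Cherry fluorescence ratio. Plasmids from each gate were PCR-amplified and Illumina-sequenced, and reads were assigned to strains by barcodes. Each peptide's protein stability index is the sum, over gates, of the gate's read frequency multiplied by its gate number.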

| Sequence | protein stability index (doa10∆) | protein stability index (pdr5∆) | protein stability index (san1∆) | protein stability index (ubr1∆) |
| --- | --- | --- | --- | --- |
| NRTKSTTIKNIDILNRT [SMC4] | 2.15 ± 0.046 | 2.55 ± 0.043 | 2.38 ± 0.062 | 2.53 ± 0.041 |
| NRTMDGKPVSLPLLYNF [FAS1] | 3.08 ± 0.093 | 3.31 ± 0.1 | 2.7 ± 0.072 | 2.93 ± 0.073 |
| NRTVLLKIFKIFCIDLE [SRB8] | 1.94 ± 0.094 | 2.15 ± 0.089 | 1.89 ± 0.13 | 2.3 ± 0.071 |
| NSADAAYAQVEIQPRAN [FAS2] | 2.82 ± 0.054 | 2.76 ± 0.065 | 2.21 ± 0.061 | 2.79 ± 0.048 |
| NSASNNGNLTSNQLISN [SWI1] | 1.96 ± 0.084 | 2.14 ± 0.078 | 2.45 ± 0.11 | 2.75 ± 0.056 |
| NSDIANLRTQVTQQKRS [SMC1] | 3.05 ± 0.074 | 3.1 ± 0.055 | 2.97 ± 0.062 | 3.08 ± 0.066 |
| NSESDSKSDSDSEERDP [ITC1] | 3.14 ± 0.14 | 2.99 ± 0.2 | 3.01 ± 0.12 | 3.22 ± 0.12 |
| NSFIKANLPWLGKAQNW [RPN2] | – | 2.6 ± 0.13 | – | – |
| NSKDHKKITLQLLDTSN [SIN4] | 3.07 ± 0.07 | 3.39 ± 0.078 | 3.04 ± 0.074 | 2.96 ± 0.053 |
| NSLFYLKWSACTSLMDI [IRR1] | 1.68 ± 0.073 | 2.31 ± 0.047 | 1.61 ± 0.13 | 1.83 ± 0.042 |
| NSLLSNFNDIPPSVTLQ [YDL088C/ASM4] | 2.63 ± 0.081 | 1.98 ± 0.072 | 2.04 ± 0.11 | 2.72 ± 0.11 |
| NSLLTIVWRFISENTFP [RPC34] | 1.82 ± 0.059 | 2.05 ± 0.042 | 2.08 ± 0.076 | 2.31 ± 0.045 |
| NSMDISMFSGLDSTGFD [MED2] | 2.83 ± 0.059 | 3.06 ± 0.055 | 3.21 ± 0.041 | 2.83 ± 0.049 |
| NSNSNQQSTDADEDDED [RPT1] | 2.32 ± 0.095 | 2.34 ± 0.093 | 2.46 ± 0.091 | 2.37 ± 0.061 |
| NSNSNSGSLFGSNNAQT [YGL172W/NUP49] | 2.6 ± 0.13 | 3.24 ± 0.085 | 2.9 ± 0.3 | 3.11 ± 0.11 |
| NSPTSFFDGSASSTPIP [YOR098C/NUP1] | 3.19 ± 0.07 | 2.8 ± 0.049 | 2.94 ± 0.052 | 2.84 ± 0.046 |
| NSSEIQSAIRPAGQATQ [RPL4A] | 2.63 ± 0.085 | 2.85 ± 0.094 | 2.77 ± 0.039 | 2.57 ± 0.062 |
| NSSSMEEVMRIALMGQD [ESC2] | 2.69 ± 0.068 | 2.67 ± 0.075 | 2.19 ± 0.12 | 2.62 ± 0.049 |
| NTAFGNSNPTSNVFGSN [YJL041W/NSP1] | 3.06 ± 0.13 | 3.6 ± 0.17 | – | 3.6 ± 0.16 |

| Sequence | protein stability index (doa10∆) | protein stability index (pdr5∆) | protein stability index (san1∆) | protein stability index (ubr1∆) |
| --- | --- | --- | --- | --- |
| NTEKDYKMVQEQLSKQR [SMC2] | 3.27 ± 0.065 | 3.17 ± 0.072 | 3.25 ± 0.045 | 3.23 ± 0.043 |
| NTENNDPDIPMTIDLEP [IRR1] | 3.07 ± 0.17 | 2.94 ± 0.16 | 2.48 ± 0.19 | 3.14 ± 0.12 |
| NTFKVLSKFFFFIFVFN [COB] | 1.66 ± 0.078 | 1.41 ± 0.1 | 1.32 ± 0.2 | 1.29 ± 0.077 |
| NTHWGLVCPAETPEGQA [RPB2] | 1.53 ± 0.14 | 1.49 ± 0.1 | 1.78 ± 0.15 | 1.14 ± 0.097 |
| NTLEEFEHGRTPAEMSR [FAS2] | 2.8 ± 0.15 | 3.09 ± 0.16 | 3.19 ± 0.16 | 3.57 ± 0.15 |
| NTLLQQQNYSKVLLPSI [SWI1] | 2.07 ± 0.077 | 2.9 ± 0.11 | 2.79 ± 0.076 | 3.09 ± 0.095 |
| NTLNIDNTARVIFDASI [BRN1] | 2.14 ± 0.05 | 2.28 ± 0.039 | 2.23 ± 0.056 | 2.37 ± 0.032 |
| NTNGTNASANSTSFSFN [YOR098C/NUP1] | 2.91 ± 0.045 | 3.12 ± 0.045 | 2.99 ± 0.042 | 3.06 ± 0.031 |
| NTNNNNTNNNNNPANNT [SWI1] | 3.35 ± 0.044 | 3.354 ± 0.033 | 3.409 ± 0.027 | 3.3 ± 0.044 |
| NTQLHGPSATDPETTAT [RGR1] | 3.01 ± 0.094 | 2.89 ± 0.088 | 2.65 ± 0.073 | 2.81 ± 0.068 |
| NTSAQHVESDKITAKTQ [IRR1] | 2.92 ± 0.05 | 2.99 ± 0.039 | 2.95 ± 0.05 | 3.08 ± 0.042 |
| NTSVLMKLKLMIVYYKD [YCS4] | 1.56 ± 0.15 | 1.56 ± 0.12 | 1.32 ± 0.21 | 1.29 ± 0.11 |
| NTVDGDLLKLVHLSNGY [FAS1] | 2.86 ± 0.07 | 2.52 ± 0.056 | 2.31 ± 0.076 | 2.46 ± 0.064 |
| NTYKRLVIGIFKRDLLR [YJL039C/NUP192] | 2.5 ± 0.082 | 1.58 ± 0.083 | 1.31 ± 0.13 | 1.59 ± 0.055 |
| NVESVGSIPVDQVVVRG [RPB3] | 2.63 ± 0.057 | 2.45 ± 0.072 | 2.3 ± 0.07 | 2.23 ± 0.059 |
| NVFVILMDKCLPKVRIR [DIS3] | 2.96 ± 0.088 | 1.87 ± 0.05 | 1.87 ± 0.07 | 1.65 ± 0.047 |
| NVGLPILKSLKNRSNRK [YOR098C/NUP1] | 3.07 ± 0.075 | 3.1 ± 0.078 | 2.88 ± 0.064 | 3.11 ± 0.049 |
| NVKNYSTTQEILEFITA [RPC34] | 1.28 ± 0.24 | 1.45 ± 0.088 | 1.18 ± 0.18 | 1.25 ± 0.15 |
| NVLNRIQELEDQRDELL [ITC1] | 3.39 ± 0.12 | 3.15 ± 0.085 | 3.5 ± 0.077 | 3.56 ± 0.12 |
